Changes are numbered by the printed parent chain. Where two headings read alike, the source gives them in different places.
Columns and labels:
[1] = molecular target: T1, PD-L1 on CHO-PD-L1 cells (Promega PD-1/PD-L1 Blockade Bioassay) (UniProt Q9NZQ7 19-290, limits assumed); test: cell-based or functional assay
PD-L1-His antigen [2] = molecular target: T2, PD-L1-His antigen (human, UniProt Q9NZQ7 19-238); test: SPR (Biacore T200), PD-L1-His immobilised on chip, antibody as mobile phase, 1:1 Binding fit
T2 construct: Human PD-L1 ECD with C-terminal 8xHIS tag, expressed in HEK293F; also called hPDL1-His; human PD-L1-His
T2 sequence (Q9NZQ7 other isoform, or with tags, fused parts or gaps limits assumed): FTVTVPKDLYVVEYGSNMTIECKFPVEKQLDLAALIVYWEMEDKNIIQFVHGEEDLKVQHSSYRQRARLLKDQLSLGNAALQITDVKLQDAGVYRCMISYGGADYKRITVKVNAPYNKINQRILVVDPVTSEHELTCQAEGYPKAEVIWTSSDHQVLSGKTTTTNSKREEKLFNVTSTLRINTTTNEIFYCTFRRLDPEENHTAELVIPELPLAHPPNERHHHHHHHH

[3] = molecular target: T3, human PD-L1 on PD-L1-CHO cells (human, UniProt Q9NZQ7 19-290); test: FACS on PD-L1-CHO cells, PE-labeled anti-human Fc secondary antibody; MFI(Mean) against Con(nM)
T3 construct: whole, on cells; also called CHO cells overexpressing human PD-L1; PD-L1 expressed on the cell surface
T3 sequence (Q9NZQ7 19-290): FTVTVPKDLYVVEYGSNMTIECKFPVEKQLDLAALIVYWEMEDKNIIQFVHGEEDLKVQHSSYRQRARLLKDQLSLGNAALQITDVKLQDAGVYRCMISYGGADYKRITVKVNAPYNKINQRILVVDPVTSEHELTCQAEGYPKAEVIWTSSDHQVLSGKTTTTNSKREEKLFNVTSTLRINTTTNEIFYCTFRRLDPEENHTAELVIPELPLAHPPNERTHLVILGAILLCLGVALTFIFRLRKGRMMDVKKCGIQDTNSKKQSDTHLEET

[4] = molecular target: T1, PD-L1 on CHO-PD-L1 cells (Promega …); test: cell-based or functional assay; remark: listed apart in the source
PD-L1-His antigen [5] = molecular target: T2, PD-L1-His antigen; test: SPR (Biacore), method of Example 5, 1:1 Binding fit
CD47-His antigen [6] = molecular target: T4, CD47-His antigen (human, UniProt Q08722 19-139); test: competitive ELISA, CD47-His coated, competitor SIRPα-Fc-Bio 0.1 µg/mL
T4 construct: Human CD47 ECD with C-terminal 8xHIS tag, expressed in HEK293F; also called hCD47-His; human CD47-His

CD47-His antigen [7] = molecular target: T4, CD47-His antigen; test: SPR (Biacore), method of Example 5, 1:1 Binding fit
[8] = molecular target: T1, PD-L1 on CHO-PD-L1 cells (Promega …); test: cell-based or functional assay; remark: listed apart in the source
CD47-His antigen [9] = molecular target: T4, CD47-His antigen; test: SPR (Biacore), method of Example 5, 1:1 Binding fit; remark: listed apart in the source
PD-L1-His antigen [10] = molecular target: T2, PD-L1-His antigen; test: as above; remark: listed apart in the source
CD47-His antigen [11] = molecular target: T4, CD47-His antigen; test: SPR (Biacore), method of Example 5, Two State Reaction fit
[12] = molecular target: T5, human CD47 on CD47-CHO cells (human, UniProt Q08722 19-323); test: FACS on CD47-CHO cells, PE-labeled anti-human Fc secondary antibody; MFI(Mean) against Con(nM)
T5 construct: whole, on cells; also called CHO cells overexpressing human CD47; CD47 expressed on the cell surface

T1 sequence (Q9NZQ7 19-290 limits assumed): as the sequence (Q9NZQ7 19-290) above

B1: L1-R2-4-46 (antibody, human IgG1, kappa, V domains shown)
VH: EVQLVESGGGLVQPGGSLRLSCAASGFTFSDSWIHWVRQAPGKGLEWVGWISPYGGSTYYADSLGDRFTISADTSKNTAYLQMNSLRAEDTAVYYCARRHWPGGFDYWGQGTLVTVSS
VL: EIVLTQSPSSLSASVGDRVTITCLASQTIGTWLAWYQQKPGKSPQLLIYAASTLQSGVPSRFSGSGSGTDFTLTISSLQPEDVATYYCQQYYSTPRTFGQGTKVEIKR
- EC50 (luciferase reporter, PD-1/PD-L1 blockade MOA assay; blocked partner: PD-1 on Jurkat-PD1 cells) [1]: 0.224 µg/mL
- EC50 (read off the curve) [1]: ~1 µg/mL
- Kd (PD-L1-His antigen [2]): 0.282 nM
- EC50 (read off the curve) [3]: ~0.6 nM

B2: L1-R2-4 (antibody, V domains shown)
VH: not shown
VL: B1 VL
notes: Anti-PD-L1 monoclonal antibody, VH CP11-27 with light chain R2-4; also called LI-R2-4
- EC50 (luciferase reporter, PD-1/PD-L1 blockade MOA assay; blocked partner: PD-1 on Jurkat-PD1 cells) [4]: 2.74 µg/mL
- Kd (PD-L1-His antigen [5]): 1.67 nM

B3: L1-R2-4-55 (antibody, human IgG1, kappa, V domains shown)
VH: B1 VH with S63G, L64M, G65R, D66S
VL: B1 VL
- EC50 (luciferase reporter, PD-1/PD-L1 blockade MOA assay; blocked partner: PD-1 on Jurkat-PD1 cells) [1]: 0.401 µg/mL
- EC50 (read off the curve) [1]: ~2 µg/mL
- Kd (PD-L1-His antigen [2]): 0.371 nM

B4: L1-R2-4-47 (antibody, human IgG1, kappa, V domains shown)
VH: B1 VH with S63H, G65S, D66Q
VL: B1 VL
- EC50 (luciferase reporter, PD-1/PD-L1 blockade MOA assay; blocked partner: PD-1 on Jurkat-PD1 cells) [1]: 0.389 µg/mL
- EC50 (read off the curve) [1]: ~2 µg/mL
- Kd (PD-L1-His antigen [2]): 0.29 nM
- EC50 (read off the curve) [3]: ~0.6 nM

B5: L1-R2-4-36 (antibody, human IgG1, kappa, V domains shown)
VH: B1 VH with S63D, L64F, G65R, D66H
VL: B1 VL
- EC50 (luciferase reporter, PD-1/PD-L1 blockade MOA assay; blocked partner: PD-1 on Jurkat-PD1 cells) [1]: 0.148 µg/mL
- EC50 (read off the curve) [1]: ~1 µg/mL
- Kd (PD-L1-His antigen [2]): 0.341 nM
- EC50 (read off the curve) [3]: ~0.6 nM

B6: L1-R2-89 (antibody, V domains shown)
VH: not shown
VL: B1 VL with E1D, V3Q, L4M, T53S, R96Y, E105D
notes: Anti-PD-L1 monoclonal antibody, VH CP11-27 with light chain R2-89; also called LI-R2-89
- EC50 (luciferase reporter, PD-1/PD-L1 blockade MOA assay; blocked partner: PD-1 on Jurkat-PD1 cells) [4]: 3.78 µg/mL
- Kd (PD-L1-His antigen [5]): 4.08 nM

B7: antibody 18 (antibody, human IgG1, kappa, V domains shown)
VH: QVQLQESGPGLVKPSETLSLTCTVSGGSLDNYYWSWIRQPPGKGLEWIGYIYYSGNTNYNPSLKSRVTISVDTSKNQFSLRLRSVTAADTAVYYCARGRGIFGYWGQGTLVTVSS
VL: DIQMTQSPSSVSASVGDRVTISCRANQAIGTWLAWYQQKPGKAPKLLIYAASTLQSGVPSRFSGSGSGTEFTLTISSLQAEDVAVYYCQQYYTTPLTFGGGTKLEIKR
notes: IgG1 complete anti-CD47 antibody
- IC50 (CD47-His antigen [6]): 1.23 µg/mL

B8: antibody 25 (antibody, human IgG1, kappa, V domains shown)
VH: B7 VH with R99G, G100R, Y104H
VL: B7 VL
notes: as for B7
- IC50 (CD47-His antigen [6]): 1.31 µg/mL

B9: L1-R2-6 (antibody, V domains shown)
VH: not shown
VL: EIVLTQSPSSVSASVGDKLTMTCQASQDIGKHLNWYQQKPGKPPKLLIYGASNLKTGVPSRFSGTGSGTDFTLTISSLQPEDFATYYCQQSYTTPYTFGQGTRLEIKR
notes: Anti-PD-L1 monoclonal antibody, VH CP11-27 with light chain R2-6; also called LI-R2-6
- EC50 (luciferase reporter, PD-1/PD-L1 blockade MOA assay; blocked partner: PD-1 on Jurkat-PD1 cells) [4]: 3.92 µg/mL
- Kd (PD-L1-His antigen [5]): 10.3 nM

B10: 47-R2-6 (antibody, human IgG1, kappa, V domains shown)
VH: QVQLQESGPGLVKPSETLSLTCTVSGGSLDNYYWSWIRQPPGKGLEWIGYIYYSGNTNYNPSLKSRVTISVDTSKNQFSLKLSSVTAADTAVYYCARGGRFLERYWGQGTLVTVSS
VL: B9 VL
notes: Anti-CD47 monoclonal antibody, L12-6-VH with light chain R2-6
- Kd (CD47-His antigen [7]): 1.11 nM

B11: L1-R2-78 (antibody, V domains shown)
VH: not shown
VL: DIQMTQSPSSFSASTGDRVTITCRASQGISSYLAWYQQKPGKAPKLLIYAASRLQSGVPSRFSGSGSGTDFTLTISSLQAEDVAVYYCQQYYSTPYTFGQGTKVDIKR
notes: Anti-PD-L1 monoclonal antibody, VH CP11-27 with light chain R2-78; also called LI-R2-78
- EC50 (luciferase reporter, PD-1/PD-L1 blockade MOA assay; blocked partner: PD-1 on Jurkat-PD1 cells) [4]: 3.57 µg/mL
- Kd (PD-L1-His antigen [5]): 8.99 nM

B12: 47-R2-78 (antibody, human IgG1, kappa, V domains shown)
VH: B10 VH
VL: B11 VL
notes: Anti-CD47 monoclonal antibody, L12-6-VH with light chain R2-78
- Kd (CD47-His antigen [7]): 655 nM

B13: 47-R2-85 (antibody, human IgG1, kappa, V domains shown)
VH: B10 VH
VL: B11 VL with F11L, T15V, T22P, S30G, S31K, Y32F, K45S, R53S, A80T, Y92F
notes: Anti-CD47 monoclonal antibody, L12-6-VH with light chain R2-85
- Kd (CD47-His antigen [7]): 275 nM

B14: L1-R2-18 (antibody, V domains shown)
VH: not shown
VL: EIVLTQSPSSVSASVGDRITITCRASQGIGSWLAWYQQKPGKAPSLLIYAASSLQSGVPSRFSGSGSGTDFTLTISSLQTEDVAVYYCQQYFSTPYTFGQGTKVDIKR
notes: Anti-PD-L1 monoclonal antibody, VH CP11-27 with light chain R2-18; also called LI-R2-18
- EC50 (luciferase reporter, PD-1/PD-L1 blockade MOA assay; blocked partner: PD-1 on Jurkat-PD1 cells) [4]: 5.09 µg/mL
- Kd (PD-L1-His antigen [5]): 3.92 nM

B15: L1-R2-85 (antibody, V domains shown)
VH: not shown
VL: B14 VL with E1D, V3Q, L4M, V11L, I19V, T22P, S31K, W32F
notes: Anti-PD-L1 monoclonal antibody, VH CP11-27 with light chain R2-85; also called LI-R2-85
- EC50 (luciferase reporter, PD-1/PD-L1 blockade MOA assay; blocked partner: PD-1 on Jurkat-PD1 cells) [4]: 5.22 µg/mL
- Kd (PD-L1-His antigen [5]): 11.5 nM

B16: BsAb-71 (bispecific antibody, human IgG1, kappa)
heavy 1: not shown
heavy 2: not shown
light: EIVLTQSPSSLSASVGDRVTITCLASQTIGTWLAWYQQKPGKSPQLLIYAASTLQSGVPSRFSGSGSGTDFTLTISSLQPEDVATYYCQQYYSTPRTFGQGTKVEIKRTVAAPSVFIFPPSDEQLKSGTASVVCLLNNFYPREAKVQWKVDNALQSGNSQESVTEQDSKDSTYSLSSTLTLSKADYEKHKVYACEVTHQGLSSPVTKSFNRGEC
notes: Knob-into-hole IgG1-like bispecific with common light chain; first heavy chain is the anti-PD-L1 arm, second the anti-CD47 arm; also called anti-PD-L1/CD47 bispecific antibody BsAb-71
- EC50 (luciferase reporter, PD-1/PD-L1 blockade MOA assay; blocked partner: PD-1 on Jurkat-PD1 cells) [8]: 0.285 µg/mL
- Kd (CD47-His antigen [9]): 27.8 nM
- Kd (PD-L1-His antigen [10]): 0.174 nM
- Kd (CD47-His antigen [11]): 3.78 nM

B17: BsAb-36 (bispecific antibody, human IgG1, kappa)
heavy 1: not shown
heavy 2: not shown
light: B16 light
notes: Knob-into-hole IgG1-like bispecific with common light chain; first heavy chain is the anti-PD-L1 arm, second the anti-CD47 arm; also called anti-PD-L1/CD47 bispecific antibody BsAb-36
- EC50 (luciferase reporter, PD-1/PD-L1 blockade MOA assay; blocked partner: PD-1 on Jurkat-PD1 cells) [8]: 0.208 µg/mL
- Kd (CD47-His antigen [9]): 28 nM
- Kd (PD-L1-His antigen [10]): 0.352 nM
- Kd (CD47-His antigen [11]): 4.49 nM
- EC50 (read off the curve) [3]: ~0.7 nM

B18: BsAb-47 (bispecific antibody, human IgG1, kappa)
heavy 1: not shown
heavy 2: not shown
light: B16 light
notes: Knob-into-hole IgG1-like bispecific with common light chain; first heavy chain is the anti-PD-L1 arm, second the anti-CD47 arm; also called anti-PD-L1/CD47 bispecific antibody BsAb-47
- EC50 (luciferase reporter, PD-1/PD-L1 blockade MOA assay; blocked partner: PD-1 on Jurkat-PD1 cells) [8]: 0.295 µg/mL
- Kd (CD47-His antigen [9]): 28.4 nM
- Kd (PD-L1-His antigen [10]): 0.223 nM
- Kd (CD47-His antigen [11]): 4.77 nM
- EC50 (read off the curve) [12]: ~4 nM
- EC50 (read off the curve) [3]: ~0.8 nM

B19: BsAb-46 (bispecific antibody, human IgG1, kappa)
heavy 1: not shown
heavy 2: not shown
light: B16 light
notes: Knob-into-hole IgG1-like bispecific with common light chain; first heavy chain is the anti-PD-L1 arm, second the anti-CD47 arm; also called anti-PD-L1/CD47 bispecific antibody BsAb-46
- EC50 (luciferase reporter, PD-1/PD-L1 blockade MOA assay; blocked partner: PD-1 on Jurkat-PD1 cells) [8]: 0.143 µg/mL
- Kd (CD47-His antigen [9]): 29.1 nM
- Kd (PD-L1-His antigen [10]): 0.371 nM
- Kd (CD47-His antigen [11]): 3.95 nM
- EC50 (read off the curve) [3]: ~0.8 nM

Source: US20240067728A1 (BIO THERA SOLUTIONS, published 2024)
